Target: recombinant basigin (CD147), immunoglobulin domains 1 and 2 of the short isoform (aa 22-205) (UniProt P35613)
Test: SPR; basigin immobilised on a CM5 chip by amine coupling (950 RU); RH5.1 injected as a two-fold dilution series from 2 µM, 120 s at 30 µL/min, 300 s dissociation; 20 °C; 10 mM HEPES pH 7.4, 150 mM NaCl, 3 mM EDTA, 0.005% Tween-20, 2 mg/mL dextran, 1 mg/mL salmon sperm DNA; kinetic sensorgrams fitted to a global 1:1 model

Sequence of UniProt P35613 (P35613 other isoform, or with tags, fused parts or gaps): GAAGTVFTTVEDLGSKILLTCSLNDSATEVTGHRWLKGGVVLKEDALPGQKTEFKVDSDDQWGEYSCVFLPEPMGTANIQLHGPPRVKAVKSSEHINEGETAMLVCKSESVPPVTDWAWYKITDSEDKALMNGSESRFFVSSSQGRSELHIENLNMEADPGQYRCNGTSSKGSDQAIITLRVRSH

RH5.1 protein vaccine (full-length Plasmodium falciparum reticulocyte-binding protein homolog 5, PfRH5, aa E26-Q526, with C-tag) (from UniProt Q8IFM5 26-526) (natural protein)
Kd: 1200 nM

Source: publication PMC6098134
